Four molecules from patent US20050037969A1 (ARBOR VITA, published 2005) can be followed below.

Ends that are not written are not given here. * marks the point of attachment. Biotin = O=C1N[C@H]2[C@H](CS[C@H]2CCCCC(=O)*)N1

To fix the notation:
T1: GST-prIL16 fusion protein (PDZ domains 1-2) (Homo sapiens (Human), UniProt Q14005 1111-1324)
T1 construct: also called putative interleukin 16 precursor; not shown: glutathione S-transferase encoded by vector pGEX-3X (Pharmacia)
T1 sequence: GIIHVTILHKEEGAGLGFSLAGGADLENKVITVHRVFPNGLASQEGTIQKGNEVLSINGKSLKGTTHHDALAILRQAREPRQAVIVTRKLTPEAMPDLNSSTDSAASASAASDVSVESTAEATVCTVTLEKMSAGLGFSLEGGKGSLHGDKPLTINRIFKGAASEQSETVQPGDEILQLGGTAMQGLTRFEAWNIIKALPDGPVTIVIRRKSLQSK

T2: GST-mouse syntenin fusion protein (Mus musculus, UniProt O08992 108-286)
T2 construct: also called Mus musculus Syntenin; not shown: glutathione S-transferase encoded by vector pGEX-3X (Pharmacia)
T2 chain: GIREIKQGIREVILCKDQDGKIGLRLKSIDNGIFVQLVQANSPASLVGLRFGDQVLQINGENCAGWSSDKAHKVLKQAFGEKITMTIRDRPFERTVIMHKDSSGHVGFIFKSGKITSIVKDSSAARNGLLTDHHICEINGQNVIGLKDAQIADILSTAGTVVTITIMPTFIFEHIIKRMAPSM

T3: GST-TAX-IP40 PDZ domain fusion protein (human, UniProt Q6B4M5 150-252 (rat entry))
T3 construct: also called TAX40; not shown: glutathione S-transferase encoded by vector pGEX-3X (Pharmacia)
T3 sequence: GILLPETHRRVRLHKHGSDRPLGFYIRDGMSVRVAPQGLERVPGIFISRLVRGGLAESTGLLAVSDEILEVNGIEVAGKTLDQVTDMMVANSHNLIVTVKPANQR

T4: K559 PDZ-GST fusion protein (Homo sapiens (Human), UniProt Q9Y6V0 4489-4593)
T4 construct: Order of GST and PDZ part and limits not seen in the excerpts
T4 sequence: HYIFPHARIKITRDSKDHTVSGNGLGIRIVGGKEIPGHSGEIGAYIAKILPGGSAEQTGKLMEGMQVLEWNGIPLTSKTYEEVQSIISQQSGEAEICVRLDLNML

T5: GST-cytohesin binding protein PDZ domain fusion protein (Homo sapiens (Human), UniProt O60759 74-165)
T5 construct: also called CBP; not shown: glutathione S-transferase encoded by vector pGEX-3X (Pharmacia)
T5 sequence: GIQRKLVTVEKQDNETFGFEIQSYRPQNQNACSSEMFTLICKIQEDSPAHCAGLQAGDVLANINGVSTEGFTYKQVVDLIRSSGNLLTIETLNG

T6: GST-LIM protein PDZ domain fusion protein (Human, UniProt Q96HC4 2-85)
T6 construct: also called Human LIM protein; not shown: glutathione S-transferase encoded by vector pGEX-3X (Pharmacia)
T6 sequence: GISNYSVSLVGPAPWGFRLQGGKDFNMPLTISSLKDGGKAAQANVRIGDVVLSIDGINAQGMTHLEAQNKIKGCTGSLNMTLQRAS

T7: ConEn PDZ-GST fusion protein (Homo sapiens (Human), UniProt Q969H4 193-287)
T7 construct: The label ConEn is not explained in the excerpts
T7 sequence: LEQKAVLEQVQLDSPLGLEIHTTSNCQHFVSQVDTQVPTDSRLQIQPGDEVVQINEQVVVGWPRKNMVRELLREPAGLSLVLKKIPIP

T8: K858 PDZ-GST fusion protein (Homo sapiens (Human), UniProt Q8WWI1 1038-1131)
T8 construct: Order of GST and PDZ part and limits not seen in the excerpts
T8 sequence: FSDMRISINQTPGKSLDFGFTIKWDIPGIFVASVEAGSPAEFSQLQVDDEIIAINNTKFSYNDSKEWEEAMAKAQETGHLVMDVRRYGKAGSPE

T9: GST-PDZK1 fusion protein (PDZ domains 2-4) (Homo sapiens, UniProt Q5T2W1 134-457)
T9 construct: not shown: glutathione S-transferase encoded by vector pGEX-3X (Pharmacia)
T9 sequence: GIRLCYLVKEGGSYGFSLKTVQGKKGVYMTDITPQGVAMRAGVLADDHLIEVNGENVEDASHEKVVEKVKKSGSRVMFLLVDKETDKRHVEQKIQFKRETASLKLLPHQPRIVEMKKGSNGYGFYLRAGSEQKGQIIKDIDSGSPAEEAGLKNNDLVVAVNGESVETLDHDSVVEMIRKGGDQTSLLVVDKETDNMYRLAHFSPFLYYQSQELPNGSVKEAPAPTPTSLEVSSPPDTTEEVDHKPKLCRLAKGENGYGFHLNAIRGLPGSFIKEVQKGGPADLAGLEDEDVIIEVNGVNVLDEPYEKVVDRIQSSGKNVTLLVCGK

T10: MINT3 PDZ-GST fusion protein
T10 construct: Order of GST and PDZ part and limits not seen in the excerpts
T10 chain: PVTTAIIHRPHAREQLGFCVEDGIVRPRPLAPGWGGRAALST

T11: GST-CASK PDZ domain fusion protein (Homo sapiens, UniProt O14936 486-575)
T11 construct: also called Homo sapiens CASK protein
T11 sequence: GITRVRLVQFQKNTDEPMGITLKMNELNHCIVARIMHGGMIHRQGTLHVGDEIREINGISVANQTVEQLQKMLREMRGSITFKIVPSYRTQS

B1: CD138 C-terminal peptide AA18L, biotinylated (peptide)
peptide: Biotin-PKQANGGAYQKPTKQEEFYA
notes: also called CD138 (syndecan-1); CD138 (syndecan)
B2: Spectrin (beta) C-terminal peptide AA32L, biotinylated (peptide)
peptide: Biotin-SFPPCGHRENVPGQSLVSFV
notes: Marked (S), sticky; also called Spectrin beta (S); Spectrin β

In the first experiment the target is T1, GST-prIL16 fusion protein (PDZ domains …). Description: A/G assays.
Consider Biotin-AWDDSARAAGGQGLHVTAL [LPAP C-terminal peptide AA30L, biotinylated], for which the binding result was “no binding”.
On the same count and under the same terms, then B1, with “no binding”; and B2, with “no binding”.
Same read-out and setting: then Biotin-STNHSIGSTQSTPCSTSSMA (also called CD105 (endoglin)) [CD105 C-terminal peptide AA16L, biotinylated], with “no binding”.

Another experiment has as its target T2, GST-mouse syntenin fusion protein. Description: A/G assays.
As to Biotin-AWDDSARAAGGQGLHVTAL [LPAP C-terminal peptide AA30L, biotinylated], the binding result is “no binding”.
Same read-out and setting: then B2, with “no binding”; and Biotin-STNHSIGSTQSTPCSTSSMA (also called CD105 (endoglin)) [CD105 C-terminal peptide AA16L, biotinylated], with “no binding”.

Another experiment addresses T3, GST-TAX-IP40 PDZ domain fusion protein. The experiment can be described thus: A/G assays.
For Biotin-AWDDSARAAGGQGLHVTAL [LPAP C-terminal peptide AA30L, biotinylated], the binding result is given as “no binding”.
Consider B1, for which the binding result is given as “no binding”.
Regarding B2, the binding result is “no binding”.
With Biotin-STNHSIGSTQSTPCSTSSMA (also called CD105 (endoglin)) [CD105 C-terminal peptide AA16L, biotinylated], the binding result is given as “no binding”.

Another experiment addresses T4, K559 PDZ-GST fusion protein. The experiment can be described thus: A/G assays.
As for Biotin-AWDDSARAAGGQGLHVTAL [LPAP C-terminal peptide AA30L, biotinylated], the binding result is recorded as “no binding”.
Still for that read-out and setting: then B1, with “no binding”.
Same read-out and setting: then B2, with “no binding”.
Still for that read-out and setting: then Biotin-STNHSIGSTQSTPCSTSSMA (also called CD105 (endoglin)) [CD105 C-terminal peptide AA16L, biotinylated], with “no binding”.

The next experiment deals with T5, GST-cytohesin binding protein PDZ …. The experiment can be described thus: A/G assays.
Regarding Biotin-AWDDSARAAGGQGLHVTAL [LPAP C-terminal peptide AA30L, biotinylated], the binding result was “no binding”.
With B1, the binding result is listed as “no binding”.
With Biotin-STNHSIGSTQSTPCSTSSMA (also called CD105 (endoglin)) [CD105 C-terminal peptide AA16L, biotinylated], the binding result is recorded as “no binding”.

For a further experiment, the target named is T12, NOS1 PDZ-GST fusion protein (Homo sapiens (Human), UniProt P29475 11-100).
T12 construct: Order of GST and PDZ part and limits not seen in the excerpts
T12 sequence (P29475 11-100 limits assumed): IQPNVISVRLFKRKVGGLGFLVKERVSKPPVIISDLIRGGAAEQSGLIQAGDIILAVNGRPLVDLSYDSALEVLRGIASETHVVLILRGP
Description: A/G assays.
Regarding B1, the binding result was “no binding”.
Still for that read-out and setting: then Biotin-STNHSIGSTQSTPCSTSSMA (also called CD105 (endoglin)) [CD105 C-terminal peptide AA16L, biotinylated], with “no binding”.

In a further experiment the target is T13, PICK1 PDZ-GST fusion protein (Bos taurus (Bovine), UniProt Q2T9M1 17-105).
T13 construct: Order of GST and PDZ part and limits not seen in the excerpts
T13 sequence (Q2T9M1 other isoform, or with tags, fused parts or gaps limits assumed): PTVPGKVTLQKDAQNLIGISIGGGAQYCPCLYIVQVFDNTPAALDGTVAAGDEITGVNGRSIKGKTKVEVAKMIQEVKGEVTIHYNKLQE
Description: A/G assays.
As for Biotin-AWDDSARAAGGQGLHVTAL [LPAP C-terminal peptide AA30L, biotinylated], the binding result is “no binding”.
On the same count and under the same terms, then B1, with “no binding”; and B2, with “no binding”; and Biotin-STNHSIGSTQSTPCSTSSMA (also called CD105 (endoglin)) [CD105 C-terminal peptide AA16L, biotinylated], with “no binding”.

A further experiment deals with T14, NSP PDZ-GST fusion protein (Homo sapiens (Human), UniProt Q92743 370-466).
T14 construct: The label NSP is not explained in the excerpts
T14 sequence (Q92743 other isoform, or with tags, fused parts or gaps limits assumed): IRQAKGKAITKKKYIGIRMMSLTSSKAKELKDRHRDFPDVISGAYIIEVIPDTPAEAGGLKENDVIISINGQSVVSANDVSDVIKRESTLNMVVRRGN
The experiment can be described thus: A/G assays.
For the molecule Biotin-AWDDSARAAGGQGLHVTAL [LPAP C-terminal peptide AA30L, biotinylated], the binding result is recorded as “no binding”.
Consider B1, for which the binding result is given as “no binding”.
Same read-out and setting: then Biotin-STNHSIGSTQSTPCSTSSMA (also called CD105 (endoglin)) [CD105 C-terminal peptide AA16L, biotinylated], with “no binding”.

A further experiment deals with T6, GST-LIM protein PDZ domain fusion …. Description: A/G assays.
Regarding Biotin-AWDDSARAAGGQGLHVTAL [LPAP C-terminal peptide AA30L, biotinylated], the binding result was “no binding”.
B1: the binding result is “no binding”.
With B2, the binding result is listed as “no binding”.

The next experiment concerns the target T7, ConEn PDZ-GST fusion protein. Description: A/G assays.
Turning to Biotin-AWDDSARAAGGQGLHVTAL [LPAP C-terminal peptide AA30L, biotinylated], the binding result was “no binding”.
On the same count and under the same terms, then B1, with “no binding”.
Still for that read-out and setting: then Biotin-STNHSIGSTQSTPCSTSSMA (also called CD105 (endoglin)) [CD105 C-terminal peptide AA16L, biotinylated], with “no binding”.

A further experiment deals with T8, K858 PDZ-GST fusion protein. The experiment can be described thus: A/G assays.
For Biotin-AWDDSARAAGGQGLHVTAL [LPAP C-terminal peptide AA30L, biotinylated], the binding result is “no binding”.
For B1, the binding result is given as “no binding”.
B2: the binding result is given as “no binding”.
On the same count and under the same terms, then Biotin-STNHSIGSTQSTPCSTSSMA (also called CD105 (endoglin)) [CD105 C-terminal peptide AA16L, biotinylated], with “no binding”.

The target of a further experiment is T9, GST-PDZK1 fusion protein (PDZ domains …). Description: A/G assays.
With Biotin-AWDDSARAAGGQGLHVTAL [LPAP C-terminal peptide AA30L, biotinylated], the binding result was “no binding”.
Same read-out and setting: then B1, with “no binding”; and B2, with “no binding”; and Biotin-STNHSIGSTQSTPCSTSSMA (also called CD105 (endoglin)) [CD105 C-terminal peptide AA16L, biotinylated], with “no binding”.

A further experiment addresses T10, MINT3 PDZ-GST fusion protein. Description: A/G assays.
For the molecule Biotin-AWDDSARAAGGQGLHVTAL [LPAP C-terminal peptide AA30L, biotinylated], the binding result is on record as “no binding”.
The same measure, in the same setting: then B1, with “no binding”; and Biotin-STNHSIGSTQSTPCSTSSMA (also called CD105 (endoglin)) [CD105 C-terminal peptide AA16L, biotinylated], with “no binding”.

The next experiment concerns the target T11, GST-CASK PDZ domain fusion protein. The experiment can be described thus: A/G assays.
Turning to Biotin-AWDDSARAAGGQGLHVTAL [LPAP C-terminal peptide AA30L, biotinylated], the binding result is “no binding”.
Take B2: the binding result is listed as “no binding”.
Same read-out and setting: then Biotin-STNHSIGSTQSTPCSTSSMA (also called CD105 (endoglin)) [CD105 C-terminal peptide AA16L, biotinylated], with “no binding”.
